Laboratory results from US20130231265A1.

Legend:
[1] = biological target: Syk biosensor peptide …biotinGG-betaNpa-… (SAStide biosensor); assay: cell-based or functional assay
[2] = tested on: Syk biosensor peptide GGDEEDYEEPDEPGGKbiotinGG-betaNpa-RKKRRQRRR (SAStide biosensor)
[3] = tested on: T1, Abl artificial substrate peptide, GGDEDDNDEVAYQAPFEDGGKbiotinGG
T1 sequence: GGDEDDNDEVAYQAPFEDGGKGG

[4] = tested on: T2, Src family artificial substrate peptide A, GGEEDEDIYEELDEPGGKbiotinGG
T2 sequence: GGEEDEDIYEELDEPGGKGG

Sequence of Recombinant Abl kinase (Millipore) (P00519 whole entry): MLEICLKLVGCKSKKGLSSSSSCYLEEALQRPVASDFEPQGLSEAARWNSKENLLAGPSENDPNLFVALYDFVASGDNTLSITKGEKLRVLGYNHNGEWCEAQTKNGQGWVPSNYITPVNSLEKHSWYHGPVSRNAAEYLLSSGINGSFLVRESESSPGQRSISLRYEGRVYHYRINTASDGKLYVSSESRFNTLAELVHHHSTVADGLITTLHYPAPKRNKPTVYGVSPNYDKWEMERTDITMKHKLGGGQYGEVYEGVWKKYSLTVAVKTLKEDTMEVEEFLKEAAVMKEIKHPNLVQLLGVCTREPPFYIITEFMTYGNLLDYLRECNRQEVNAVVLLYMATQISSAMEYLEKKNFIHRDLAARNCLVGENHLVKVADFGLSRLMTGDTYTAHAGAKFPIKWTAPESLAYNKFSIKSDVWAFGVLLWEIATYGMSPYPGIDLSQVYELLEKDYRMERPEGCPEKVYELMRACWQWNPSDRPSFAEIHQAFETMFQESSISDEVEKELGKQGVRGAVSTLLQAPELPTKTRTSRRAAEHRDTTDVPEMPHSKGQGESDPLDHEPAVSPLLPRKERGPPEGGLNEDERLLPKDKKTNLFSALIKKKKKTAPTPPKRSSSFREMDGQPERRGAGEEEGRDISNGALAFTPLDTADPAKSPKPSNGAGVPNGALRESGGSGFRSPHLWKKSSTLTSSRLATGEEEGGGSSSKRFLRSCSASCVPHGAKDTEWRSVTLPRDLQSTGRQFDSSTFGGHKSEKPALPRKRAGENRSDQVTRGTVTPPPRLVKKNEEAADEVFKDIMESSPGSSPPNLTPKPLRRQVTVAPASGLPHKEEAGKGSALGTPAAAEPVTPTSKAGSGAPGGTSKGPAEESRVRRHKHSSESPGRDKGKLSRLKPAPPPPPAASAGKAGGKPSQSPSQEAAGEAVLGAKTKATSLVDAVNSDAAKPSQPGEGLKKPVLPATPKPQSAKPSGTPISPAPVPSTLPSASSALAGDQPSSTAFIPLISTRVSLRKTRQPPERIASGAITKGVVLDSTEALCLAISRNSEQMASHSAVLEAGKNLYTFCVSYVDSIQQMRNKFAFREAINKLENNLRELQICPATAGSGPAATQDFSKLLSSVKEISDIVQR

Substance	in vitro kinase assay, ELISA-based antiphosphotyrosine (4G10) chemifluorescence signal [2]	in vitro kinase assay, terbium-sensitized luminescence, confirmed by ELISA-based Amplex Red chemifluorescent assay [3]	also measured
EGFP-conjugated Syk (Syk-EGFP) isolated from DT40 chicken B cells stably expressing Syk-EGFP (enzyme)	–	–	phosphorylation of the biosensor peptide in Syk(-/-) DT40 cells reconstituted with Syk-EGFP, BCR stimulation by IgM, over unstimulated cells [1]: 2 fold; phosphorylation of the biosensor peptide in Syk(-/-) DT40 cells reconstituted with Syk-EGFP, H2O2 with or without BCR stimulation, over control [1]: 12 fold
Recombinant Lyn kinase (Millipore)	none of which produced any significant signal for phosphopeptide	–	–
Recombinant Abl kinase (Millipore)	none of which produced any significant signal for phosphopeptide	ABStide was specific for Abl against the Src-family kinase, Hck	–
Recombinant Hck	–	ABStide was specific for Abl against the Src-family kinase, Hck	in vitro kinase assay, time-resolved Tb3+ luminescence, percent phosphorylation against time [4]: These data show that enzymatic phosphorylation of SFAStideA can be detected using time-resolved Tb^3+ luminescence
Recombinant Src kinase (Millipore)	none of which produced any significant signal for phosphopeptide	–	–
EGFP-conjugated Syk (Syk-EGFP) isolated from DT40 chicken B cells stably expressing Syk-EGFP	–	–	in vitro kinase assay, ELISA-based antiphosphotyrosine (4G10) chemifluorescence signal over time [2]: A substantial increase in signal over time was observed, demonstrating that SAStide was phosphorylated by Syk in vitro; in vitro kinase assay, time-resolved Tb3+ luminescence, percent phosphorylation against time [2]: These data show that enzymatic phosphorylation of SAStide can be detected using time-resolved Tb^3+ luminescence
